Assay results taken from a protein production outcome set (Wang et al. 2014).

experiment: label from the status in PepcDB records

Row | Sequence | protein production
1 | MIIGLLNQKGGVGKTTLSVNLAASFARTGARVLLIDVDPQGSALDWAAAREGAPLFPVVGLPRATVHKEITQIGHNYDHIIIDGPPRVTDLARSALMASDFVLIPVQPSPYDIWAADGIVKLIDEARVYKENLKSAFVINRKIVNTAIGRDVGEALGVYPVHVLSANVAQRVIFAEAATQGKTVYEVDKQGLAAAEIEAVAAEIKELAQLEHHHHHH | not failed
2 | MIILIWMVIMRHVFRLNLWFVFLATFLFTPYLYAEPIKEPSRPKIALVLAGGGAKGAAHIGVLKALEELNIPIDIITGTSMGAYVGGLYATGKSASEIEAYLHTVDWYSGYQDEVGREEKNSRDKKYEDRFAINPSLGIRKEGVKSPKSAIQGQNMLKILRETSGNPVSVASFDDFPIRYRSVATDIVSMEEVVIDHGLLVDAMMASMSVPGALPPYEFEDKLLIDGGVTNNMPVELAKEMGADIVIAVDISSNYMTKEQIGSLFDVASQLTNFMVKRSTQEQAEFLTDKDILLQPRVGDIETTDFSSMPRAYQEGYDTVMTLKSRLQSLAVAPNEYAQYQNKIKQQSANVRLAQGAIIDKVEVENRSHYESDKLERFIQFEQGTLLSSDYIEDKIHALYATNRFETITYLVEEDNNENVLKVTAKEKEWGPNYLNFRFFLEEDFDTHSQYGLGASINFTDLNDYGAELRTNVELGTDKIFDATIHYPFYLNHHFFVQSNMMYSDKKRSISTSSLEDKEPNSSMSFYPVNLRDFTVDALFGVEATKDQQLKTGILYARGSHELTGLSAYGRTEYERLGATLEYNFDSLDSISLPTHGSLINARYLYAFDKVNSRDVEGSDHSEQYIDEFTAEALFARSIARHTFISSAEYGITNSDDYLVPVNPIELGGFNHLSGLPRNSLIGANKIYGRLTYRYRWFENDLGMFKTAVYLGASAEYGGLWSMKSTDISSAPLIFSGSLFGGIDTPIGPIILSYGRAENGLDSVYLIVGNVE | failed
3 | MIINITILEDNESDFITLSDSIKKWAANTGILINIIWLNSYKKFIKSLPTLKCDLFFSDIELNCNNSFTGIDACKQLRESGYTGIIIFLTAFKEYVFDGYDVQAFNYLLKPINYGTINNCLDKFIHLFSLEHHHHHH | not failed
4 | MIIRGIRGARINNEIFNLGLKFQILNADVVATKKHVLHAINQAKTKKPIAKSFWMEILVRASGQRQIHEAIKIIGAKDGNVCLICEDEETFRKIYELIGGEIDDSVLEINEDKERLIREIFKIRGFGNVVERVLEKIALIELKKE | not failed
5 | MIISLIAALAADRVIGMENAMPWHLPADLAWFKRNTLNKPVIMGRKTFESIGRPLPGRLNIVISSQPGTDERVTWAASIEEALAFAGNAEEVMVMGGGRVYKQFLDRANRMYLTHIDAEVGGDTHFPDYEPDEWESVFSEFHDADEANSHSYCFEILERR | not failed
6 | MIISNKSPISINNDPWEAYNDILEHNQLTLSNIEFTTTNLCNMRCSHCAVGYTLQTKDPDPLPMDIIYRRLDEIPNLRTLSITGGEPMFSKKSIKNVVKPLLKYAKHRGIYVQMNSNLTLPQDRYLDIAEY | failed
7 | MIIVHHLNNSRSQRILWLLEELGLPYEIKRYQRDPKTNLAPPELKAIHPLGKSPVIEDGPHVVIESGAIVDYLIRRHGDGRLQPDPASATYDEYVQWLHFAEGSAILPLMLNLYVGRLGDAGAPLHPRIHSELANYLGYLNEALGLTPYLLGDELSGADIQMSFIGEFAKMQGMLQPHPNLAAWVQRCQERPAYRQALEQGGEYSFAK | failed
8 | MIIVYTTFPDWESAEKVVKTLLKERLIACANLREHRAFYWWEGKIEEDKEVGAILKTREDLWEELKERIKELHPYDVPAIIRIDVDDVNEDYLKWLIEETKK | not failed
9 | MIIYNIVYPMILILLYEYLAVNYFKGDKSITSSYYYVIVLIPFFIFTNIITMAYVAKDESLSKTAYRFLSAPIDNSAIVLSKIISCTVISWGCSLILLIISKVLLSVNFEGSTLKILILFFTENFMAAAIGIFLGIVMKNFKTIKGILNIPISILGVLGGCFFPVGALGRTFEKVSYISPFTWINRGIISEVYDKSQTILVGTILVTLVFGIIFSIGASILFNKEVFL | failed
10 | MIKETVFKSFDTPAALEQQLANKIASQLQEAVDARGKASLVVSGGSTPLKLFELLSMKSIDWSDVYITLADERWVDVEDSASNERLVREHLLQNRAANAKFRGLKNMFSTAEAGADMTCESLSNFPRPFDVVVLGMGNDGHTCSWFPCSAELNDALTTQALCVATNPTTAPHGRITLSKNAILNSRQIYLHLVGEQKLSVYRQALENDDVNAMPIRAVLAQRKTPVDVFWSA | failed
11 | MIKPTPVAGTSLDRVDGVAKVTGQARYAGEYPEVGLLHGSVVSSTIARGRVLNIDSTQAMRVPGVIAVLDHGHRPHISSYDDDYSDADAAQGAPFRPLFDDRVLYNGQPLALVVAQTLELARYAGSLIRIEYAEEAHQTDLGACQQSHAAPAETPPPRGDFAAQFARAPVQVDATYLTANEYHNPMEPHASTVLYKGDGTLEIHDKTQGTQNCQDYLHKVFGLPKANIRVRAAFVGGAFGSGLRPQYQLPLAVMAALHLQRSVRVTLTRQQMFTFGYRPRTEQRLRLGADANGQLLAIAHDALGQTSRFEDFTEHVVEWSGMLYQCDNVALSYRLASLDVYTPLDMRAPGAASGMIALECAMDELACAAQIDPLDLRRRNFAASNANEGKPYSSKELLTCYRQGAERFGWQNRNPQPRSMRHGNQLVGWGMAGGVWEAMQMKASAKARFDAQGHLTVSSATTDIGTGTYTVMTQIAADAAGARVQDVTFVLGDSSLPTAPLQGGSFTVSSVGSAVRQACQVLRTKVLEHARRMYPQVASTAREQIIFADGYLHAGSHRLALADIIASAPEGEFEVQIDAEPGARRQPFSTATHSAVFAEVHVDEDLGTIKVVRVVSAVAAGRVINPKTARSQILGGVVWGVGMALHEAALTDHRLGRIVNHNLAEYHIPVNADSGDIEVIFVEEHDDIVNELGSKGVGEIGVVGVAAAVANAVYHATGKRVREFPITLDKLLKDNSQV | failed
12 | MIKRILTVLLLFPTLVCAQINTERVMTIARNALYFEDYVLSIQYFNQVINAKPYLYEPYFFRALAKVNLEDYQGAEADCDEAIKRNPFVVGAYQVRGLARIRQSKFDGAIEDYQKALHYDPENITLWHNLTLSHIQKKDYDAAKEDLESLLKVSPRYTRAYLMRGEVSLQQKDTVAALKDFNTALELDKYDPDAWSARAIVRLQQSNYAEAESDLDRAIHLSAKNAGNYINRALARFHQNNLRGAMSDYDLALDIDPNNFIGHYNRGLLRARVGDDNRAIEDFDFVIQMEPDNMMAIFNRALLRAQTGDYRGAIKDYTTVINQYPNFLAGYYHRAEARKKIGDKKGAEQDDFKLLKAQLDKQNGGTNKDVAQNQNKDKENQSGENGDESEEGKTRKKSDKNMNNYRKIVIADDSEADQRYTSDYRGRVQDKNVNIKLEPMFALTYYEKSSEVKRSVNFHKFIEDLNLSNVLPKRIRITNMEAPLTEEQVKFHFALIDAHTSAIVDDDKSAPKRFARAIDFYLVQDFSSAVADLTQAILLDGDFFPAYFMRALIRCKQLEYQKAEQAAEADMPSGAAVKEVSAVDYEVVRKDLDKVITLAPDFVYAYYNRANVAAMLKDYRAAIVDYDKAIQLSPDFADAYFNRGLTHIFLGNNKAGISDLSKAGELGVVSAYNVIKRFTDQTE | failed
13 | MIKYLIVMLIPFVIVYLLMPKFIEFANEKGFVDKPTGRKKHDKLTPLIGGVVMYIGFFATYLFGIDSTRQLSQTFIIFIASTLVIIIGVIDDYYKGKGKEFPIYPRVIIQILAATMVFKAGIVFRGITNPFTGEFTQFSGWIQYILTITWIFGVTTVINWSDGMDGLAGSISIISAMTMFVVALAKGQFNSAYMSITLVGSILAFLRYNRHPARVFMGDSGANFLGFILAIIALEGAFKQATALSILVPVLALGVPIFDNIFVIFRRFQSGKPVYEADRSQIHYRLQERGMSVKQIVSYICILSGCLSLVSLLIIMIIL | failed
14 | MILAILQARMSSTRLPGKVLMPLQRQPMIVRQIERVARSKRIDKLVVATSDRPEDDAIEAAVRREGIAVFRGSLDNVQQRFIGALDAHPADHVVRLTADCPLADPTLIDATIDLCLSKGADYVSNTPEGHAHPKGTDVEVMTAAALRRAAAEATTKEAFEHVTWDLWNQPQRWTCAWLPCFPDQGAVRWTVDRPDDYAFVAAVYDALYPANRAFTSDDIRAFVAGRPDLQDYGGDRRALEHHHHHH | failed
15 | MILFADYNTPYLFAISFVLLIGLLEIFALICGHMLSGALDAHLDHYDSITTGHISQALHYLNIGRLPALVVLCLLAGFFGLIGILLQHACIMVWQSPLSNLFVVPVSLLFTIIAVHYTGKIVAPWIPRDHSSAITEEEYIGSMALITGHQATSGNPCEGKLTDQFGQIHYLLLEPEEGKIFTKGDKVLIICRLSATRYLAENNPWPQIL | failed
16 | MILIKKFATVASGTLMSRIFGFVREMLMAAALGTGPVSDAFNAAFRFPNTFRRFFAEGAFNAAFVPLFAKRITEDGQETACKFAEEVFGVLFSLLLLLTIAMELSMPFLVRTIIAPGFAEDATKFNATIHFTAIMFPYLTCMSLAAMMGGMLNALRRYFIAAIAPLFLNIILISVLAYAWIYQLDTWHIGLNLSWGVLAAGLLQLTLIAAALRQSGMKIFLRRPRFSSNVRKLLTLAFPAAITGGITQINLLINTNIASSQSGAVSSLMYADRLYQLPLGVIAIAIATVLLPELTRALRSKNHKETHNLQNRSIELTLLLTLPASVAFLILSTPIVSLLFERGQFTSLSTHYVAQLLKLYGLGLPAFVLIKIFIPNFFAHEDTKTPMIITGICVFINISLALILFPILSARGIVIAEITSGWMNALLLWTILIQRGYWKYDIQLIKRITCLIITTLLNTIALYYVFDVIDFLSFPLSSQASFFLRASTLAGIMVAILLVHCFAYFLLDTRSFFLTLKNFKKRL | failed
17 | MILKTKLFGKVYQFTSVKEVLAKANEEKSGDKLAGVAANSAEERVAAKVVLSELSLNDLFNNPVVDYDEDEVTRIIIDQVNMRIFESIKHWTVAELREFILSSETTDFDIKRISRGLTSEMIAAVCKLMSNMDLIVGAKKINIEKTANTTIGRPGTFSNRLQPNHPTDNVDGIMASVMEGLSYGAGDALIGLNPVDDSTESVKRILNKFEEFRSEWEIPTQTCVLAHVTTQMEAMRQGAPTGLVFQSIAGSEKGNTAFGLNAEILAEAQDLALHSGQAAGPNVMYFETGQGSELSSEANFGADQVTMEARCYGLAKKFDPYIVNTVVGFIGPEYLYDSKQVIRAGLEDHFMGKLTGISMGCDVCYTNHMKADQNDMENLAMLLATAGCTYIMGIPHGDDVMLNYQTTGFHETATIRETLGLRPIKEFEEWMEKMGLMENGKLTSRAGDASVFIK | not failed
18 | MILNLDTNIFNHGLSRHNILAFSQGFPIGLPCRNWIEVGLRLRLRLLLELAVGNFPQGFKIHLSGSFQAVRLALFSSFTSLRTDELLLIETRPSYLSSVQVWGKGRPLLLLLTKREQPALQANREPPARFESLRAGKQEEADRAKASPLLASALPEAVEVGTRSRRSRGSSCGFRVKLAHCQKANRSSYLDQRTLIPGRQQGLRVEGMNQVSWLRIGGMGVRSVPSSPSPRLRLLETGDRVFLRRLAASPFNKGFQWQQTAPQDEAKNGVGGLPVVRASKWLAGPRKHNERDDRSSTRPEIDVLLP | failed
19 | MILNRQTVALMTAGLLAFNSCSLKQMVKMAKDQELTVTPSPLEVHGDSVAFDISATLPVKMLKKNKIYSVSTFYKSGDNKVELGSFDFVSTDYPDAKTTAPQIKKHQAFAYKPEIGNGDLLAVGTASNLDKTKTKSTEEFPIAKGLITTSRLVKDYSYVAYADHGYNNKEELIASTVNFYFEQGKSVLRSSEMKGQNAKFLDAFITAKHVTRTISVIGQHSPEGTETKNTNLANERSVVIEKYVKARMKHFKQDSLVNTIQFVTKGDIKDFEPMKAEIAKSTKLTPEQKSELLNIIAGSGDFTSKQQQIEKLPYYNKSVLAQLYPSLRTARTEIWTVKPKKTDAQISLLAGQITSGKVSVDTLSVEELGYAGTLTPILSEKAAIYEALAKKTDNWVAYNNLGAVYVEMAKVEVDQNKKTELVNKAINTLEMSIKKQDNGEAHVNLASAYILSGVKTSARDEANKAVASNASDAVKKGANGILGTVDIKDGKYELALQDFSKSNDSIQVKFNTALASLLKKDFNTAKAGFANYTAAAPNDAAGFYLAAVTAARLKDEATLTTNLKKAKQLSPKFGERAVSDMEFYDYWNSDNFKNALK | failed
